# Assay results taken from paper PMC7855269 (FASEB journal : official publication of the Federation of …, 2020).
# Target: FLAG-WT CFTR (cystic fibrosis transmembrane conductance regulator) (UniProt P13569 1-1480)
# Assay: pull-down
# FLAG-WT CFTR (cystic fibrosis transmembrane conductance regulator), sequence (P13569 whole entry): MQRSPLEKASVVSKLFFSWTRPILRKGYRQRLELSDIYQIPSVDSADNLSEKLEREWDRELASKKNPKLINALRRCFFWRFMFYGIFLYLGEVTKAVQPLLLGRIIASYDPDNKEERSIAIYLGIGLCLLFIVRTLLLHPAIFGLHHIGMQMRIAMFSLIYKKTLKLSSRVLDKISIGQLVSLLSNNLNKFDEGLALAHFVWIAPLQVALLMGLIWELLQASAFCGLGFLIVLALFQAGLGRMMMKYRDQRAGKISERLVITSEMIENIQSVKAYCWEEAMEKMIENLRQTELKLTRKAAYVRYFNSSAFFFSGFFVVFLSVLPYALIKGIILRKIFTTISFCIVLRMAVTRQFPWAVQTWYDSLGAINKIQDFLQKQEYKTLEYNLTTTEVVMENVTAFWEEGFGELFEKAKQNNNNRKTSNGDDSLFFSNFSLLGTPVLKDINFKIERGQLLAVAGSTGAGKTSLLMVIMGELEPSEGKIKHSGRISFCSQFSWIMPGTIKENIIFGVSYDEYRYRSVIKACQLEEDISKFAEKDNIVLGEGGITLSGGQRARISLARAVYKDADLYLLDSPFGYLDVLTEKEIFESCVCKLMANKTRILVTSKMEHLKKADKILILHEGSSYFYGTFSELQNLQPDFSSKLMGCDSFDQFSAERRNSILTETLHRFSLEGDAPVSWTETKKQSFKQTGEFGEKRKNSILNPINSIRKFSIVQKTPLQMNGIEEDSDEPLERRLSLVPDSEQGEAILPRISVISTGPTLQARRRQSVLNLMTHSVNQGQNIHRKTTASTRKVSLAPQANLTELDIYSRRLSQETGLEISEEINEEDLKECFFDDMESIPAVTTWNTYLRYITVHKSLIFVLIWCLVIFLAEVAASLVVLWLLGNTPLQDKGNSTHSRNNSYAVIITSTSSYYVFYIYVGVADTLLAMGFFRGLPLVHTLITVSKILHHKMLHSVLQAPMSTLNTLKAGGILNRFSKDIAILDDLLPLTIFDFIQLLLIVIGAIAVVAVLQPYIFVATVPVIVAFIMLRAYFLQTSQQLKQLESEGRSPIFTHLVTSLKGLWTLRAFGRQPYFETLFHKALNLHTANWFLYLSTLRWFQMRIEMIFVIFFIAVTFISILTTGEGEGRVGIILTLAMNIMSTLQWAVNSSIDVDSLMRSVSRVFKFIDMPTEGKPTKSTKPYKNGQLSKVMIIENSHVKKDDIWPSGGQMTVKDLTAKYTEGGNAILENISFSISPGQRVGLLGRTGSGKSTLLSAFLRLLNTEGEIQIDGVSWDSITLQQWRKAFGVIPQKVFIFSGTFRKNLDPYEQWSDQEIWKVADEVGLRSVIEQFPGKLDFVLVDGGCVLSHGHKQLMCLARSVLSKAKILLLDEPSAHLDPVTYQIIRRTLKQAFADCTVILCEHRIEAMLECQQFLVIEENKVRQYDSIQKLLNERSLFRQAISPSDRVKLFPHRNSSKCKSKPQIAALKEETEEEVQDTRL
binder,measurement,value
"GST-His-S-Stx17ΔC (Stx17 1–228) (domain or fragment, UniProt P56962 1-228, looked up) MSEDEEKVKLRRLEPAIQKFIKIVIPTDLERLRKHQINIEKYQRCRIWDKLHEEHINAGRTVQQLRSNIREIEKLCLKVRKDDLVLLKRMIDPVKEEASAATAEFLQLHLESVEELKKQFNDEETLLQPPLTRSMTVGGAFHTTEAEASSQSLTQIYALPEIPQDQNAAESWETLEADLIELSQLVTDFSLLVNSQQEKIDSIADHVNSAAVNVEEGTKNLGKAAKYK",binding result,binds
